Test results: patent US20130225506A1 (POLYPHOR, published 2013)
Square brackets hold non-standard residues; d marks the D form. Primed or numbered codes have the meaning given here. dPro(cis-4-NH2) = N[C@H]1CN[C@@H](C(=O)O)C1; dPro(4S-NH2) = N[C@@H]1CN[C@@H](C(=O)O)C1; 1Nal = N[C@@H](Cc1cccc2ccccc12)C(=O)O; 2Nal = N[C@@H](Cc1ccc2ccccc2c1)C(=O)O; Pro(3S-OH) = O=C(O)[C@H]1NCC[C@@H]1O; dCit = NC(=O)NCCC[C@@H](N)C(=O)O; Tic = O=C(O)[C@@H]1Cc2ccccc2CN1; Agb = N=C(N)NCC[C@H](N)C(=O)O; Agp = N=C(N)NC[C@H](N)C(=O)O; dPip′ = not defined here

Biological target: chemokine receptor CXCR7 (UniProt P25106 1-362, limits assumed)
Experiment: cell-based or functional assay

chemokine receptor CXCR7, sequence (P25106 whole entry): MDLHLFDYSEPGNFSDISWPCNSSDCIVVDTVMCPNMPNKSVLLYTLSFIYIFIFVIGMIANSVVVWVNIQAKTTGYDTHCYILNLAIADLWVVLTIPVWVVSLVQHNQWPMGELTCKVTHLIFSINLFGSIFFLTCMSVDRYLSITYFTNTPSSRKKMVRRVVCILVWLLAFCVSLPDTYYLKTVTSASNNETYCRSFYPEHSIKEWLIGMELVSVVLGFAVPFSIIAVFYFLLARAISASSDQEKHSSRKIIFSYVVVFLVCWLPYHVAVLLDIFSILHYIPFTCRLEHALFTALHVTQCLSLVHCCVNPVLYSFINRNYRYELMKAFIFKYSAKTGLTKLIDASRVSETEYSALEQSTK

Binder	β-Arrestin EC50
cyclo(W[dR]RW[dP]T) (SMILES C[C@@H](O)[C@@H]1NC(=O)[C@H]2CCCN2C(=O)[C@H](Cc2c[nH]c3ccccc23)NC(=O)[C@H](CCCNC(=N)N)NC(=O)[C@@H](CCCNC(=N)N)NC(=O)[C@H](Cc2c[nH]c3ccccc23)NC1=O) [cyclo(-Trp-^DArg-Arg-Trp-^DPro-Thr-)]	538 nM
cyclo(I[dR]RW[dP]T) (SMILES CC[C@H](C)[C@@H]1NC(=O)[C@H]([C@@H](C)O)NC(=O)[C@H]2CCCN2C(=O)[C@H](Cc2c[nH]c3ccccc23)NC(=O)[C@H](CCCNC(=N)N)NC(=O)[C@@H](CCCNC(=N)N)NC1=O) [cyclo(-Ile-^DArg-Arg-Trp-^DPro-Thr-)]	6.7 nM
cyclo(A[dF]WR[dPro(cis-4-NH2)][Tic]) (SMILES C[C@@H]1NC(=O)[C@@H]2Cc3ccccc3CN2C(=O)[C@H]2C[C@@H](N)CN2C(=O)[C@H](CCCNC(=N)N)NC(=O)[C@H](Cc2c[nH]c3ccccc23)NC(=O)[C@@H](Cc2ccccc2)NC1=O) [cyclo(-Ala-^DPhe-Trp-Arg-^DPro((4R)NH2)-Tic-)]	322 nM
cyclo(I[dH]RW[dP]T) (SMILES CC[C@H](C)[C@@H]1NC(=O)[C@H]([C@@H](C)O)NC(=O)[C@H]2CCCN2C(=O)[C@H](Cc2c[nH]c3ccccc23)NC(=O)[C@H](CCCNC(=N)N)NC(=O)[C@@H](Cc2c[nH]cn2)NC1=O) [cyclo(-Ile-^DHis-Arg-Trp-^DPro-Thr-)]	546 nM
cyclo(I[dK]RW[dP]T) (SMILES CC[C@H](C)[C@@H]1NC(=O)[C@H]([C@@H](C)O)NC(=O)[C@H]2CCCN2C(=O)[C@H](Cc2c[nH]c3ccccc23)NC(=O)[C@H](CCCNC(=N)N)NC(=O)[C@@H](CCCCN)NC1=O) [cyclo(-Ile-^DLys-Arg-Trp-^DPro-Thr-)]	86.7 nM
cyclo(W[dF]WR[dPro(4S-NH2)][Tic]) (SMILES N=C(N)NCCC[C@@H]1NC(=O)[C@H](Cc2c[nH]c3ccccc23)NC(=O)[C@@H](Cc2ccccc2)NC(=O)[C@H](Cc2c[nH]c3ccccc23)NC(=O)[C@@H]2Cc3ccccc3CN2C(=O)[C@H]2C[C@H](N)CN2C1=O) [cyclo(-Trp-^DPhe-Trp-Arg-^DPro((4S)NH2)-Tic-)]	17.5 nM
cyclo(I[dR]RI[dP]T) (SMILES CC[C@H](C)[C@@H]1NC(=O)[C@H]([C@@H](C)O)NC(=O)[C@H]2CCCN2C(=O)[C@H]([C@@H](C)CC)NC(=O)[C@H](CCCNC(=N)N)NC(=O)[C@@H](CCCNC(=N)N)NC1=O) [cyclo(-Ile-^DArg-Arg-Ile-^DPro-Thr-)]	79.7 nM
cyclo(I[dCit]RW[dP]T) (SMILES CC[C@H](C)[C@@H]1NC(=O)[C@H]([C@@H](C)O)NC(=O)[C@H]2CCCN2C(=O)[C@H](Cc2c[nH]c3ccccc23)NC(=O)[C@H](CCCNC(=N)N)NC(=O)[C@@H](CCCNC(N)=O)NC1=O) [cyclo(-Ile-^DCit-Arg-Trp-^DPro-Thr-)]	472 nM
cyclo(I[dR]R[2Nal][dP]T) (SMILES CC[C@H](C)[C@@H]1NC(=O)[C@H]([C@@H](C)O)NC(=O)[C@H]2CCCN2C(=O)[C@H](Cc2ccc3ccccc3c2)NC(=O)[C@H](CCCNC(=N)N)NC(=O)[C@@H](CCCNC(=N)N)NC1=O) [cyclo(-Ile-^DArg-Arg-2Nal-^DPro-Thr-)]	0.4 nM
cyclo(I[dR]RW[dPip′]T) [cyclo(-Ile-^DArg-Arg-Trp-^DPip-Thr-)]	0.1 nM
cyclo(I[dR][Agb]W[dP]T) (SMILES CC[C@H](C)[C@@H]1NC(=O)[C@H]([C@@H](C)O)NC(=O)[C@H]2CCCN2C(=O)[C@H](Cc2c[nH]c3ccccc23)NC(=O)[C@H](CCNC(=N)N)NC(=O)[C@@H](CCCNC(=N)N)NC1=O) [cyclo(-Ile-^DArg-Agb-Trp-^DPro-Thr-)]	22.3 nM

Results, then the binder that gave them:

β-Arrestin EC50	Binder
17.9 nM	cyclo(I[dR]R[1Nal][dP]T) (SMILES CC[C@H](C)[C@@H]1NC(=O)[C@H]([C@@H](C)O)NC(=O)[C@H]2CCCN2C(=O)[C@H](Cc2cccc3ccccc23)NC(=O)[C@H](CCCNC(=N)N)NC(=O)[C@@H](CCCNC(=N)N)NC1=O) [cyclo(-Ile-^DArg-Arg-1Nal-^DPro-Thr-)]
17.2 nM	cyclo(T[dR]WR[dP]T) (SMILES C[C@@H](O)[C@@H]1NC(=O)[C@H]([C@@H](C)O)NC(=O)[C@H]2CCCN2C(=O)[C@H](CCCNC(=N)N)NC(=O)[C@H](Cc2c[nH]c3ccccc23)NC(=O)[C@@H](CCCNC(=N)N)NC1=O) [cyclo(-Thr-^DArg-Trp-Arg-^DPro-Thr-)]
90.5 nM	cyclo(I[dR][Agp]W[dP]T) (SMILES CC[C@H](C)[C@@H]1NC(=O)[C@H]([C@@H](C)O)NC(=O)[C@H]2CCCN2C(=O)[C@H](Cc2c[nH]c3ccccc23)NC(=O)[C@H](CNC(=N)N)NC(=O)[C@@H](CCCNC(=N)N)NC1=O) [cyclo(-Ile-^DArg-Agp-Trp-^DPro-Thr-)]
83.7 nM	cyclo(I[dR]RY[dP]T) (SMILES CC[C@H](C)[C@@H]1NC(=O)[C@H]([C@@H](C)O)NC(=O)[C@H]2CCCN2C(=O)[C@H](Cc2ccc(O)cc2)NC(=O)[C@H](CCCNC(=N)N)NC(=O)[C@@H](CCCNC(=N)N)NC1=O) [cyclo(-Ile-^DArg-Arg-Tyr-^DPro-Thr-)]
123 nM	cyclo(I[dR]RW[dP][Pro(3S-OH)]) (SMILES CC[C@H](C)[C@@H]1NC(=O)[C@@H]2[C@@H](O)CCN2C(=O)[C@H]2CCCN2C(=O)[C@H](Cc2c[nH]c3ccccc23)NC(=O)[C@H](CCCNC(=N)N)NC(=O)[C@@H](CCCNC(=N)N)NC1=O) [cyclo(-Ile-^DArg-Arg-Trp-^DPro-Pro((3S)OH)-)]
62.5 nM	cyclo(I[dR]WR[dP]T) (SMILES CC[C@H](C)[C@@H]1NC(=O)[C@H]([C@@H](C)O)NC(=O)[C@H]2CCCN2C(=O)[C@H](CCCNC(=N)N)NC(=O)[C@H](Cc2c[nH]c3ccccc23)NC(=O)[C@@H](CCCNC(=N)N)NC1=O) [cyclo(-Ile-^DArg-Trp-Arg-^DPro-Thr-)]
28.5 nM	cyclo([1Nal][dR]RW[dP]T) (SMILES C[C@@H](O)[C@@H]1NC(=O)[C@H]2CCCN2C(=O)[C@H](Cc2c[nH]c3ccccc23)NC(=O)[C@H](CCCNC(=N)N)NC(=O)[C@@H](CCCNC(=N)N)NC(=O)[C@H](Cc2cccc3ccccc23)NC1=O) [cyclo(-1Nal-^DArg-Arg-Trp-^DPro-Thr-)]
6.1 nM	cyclo(W[dF]WR[dPro(cis-4-NH2)][Tic]) (SMILES N=C(N)NCCC[C@@H]1NC(=O)[C@H](Cc2c[nH]c3ccccc23)NC(=O)[C@@H](Cc2ccccc2)NC(=O)[C@H](Cc2c[nH]c3ccccc23)NC(=O)[C@@H]2Cc3ccccc3CN2C(=O)[C@H]2C[C@@H](N)CN2C1=O) [cyclo(-Trp-^DPhe-Trp-Arg-^DPro((4R)NH2)-Tic-)]
12.8 nM	cyclo(I[dR]RW[dP]S) (SMILES CC[C@H](C)[C@@H]1NC(=O)[C@H](CO)NC(=O)[C@H]2CCCN2C(=O)[C@H](Cc2c[nH]c3ccccc23)NC(=O)[C@H](CCCNC(=N)N)NC(=O)[C@@H](CCCNC(=N)N)NC1=O) [cyclo(-Ile-^DArg-Arg-Trp-^DPro-Ser-)]
